B1: MARVEL domain-containing protein 2 (Homo sapiens), Q8N4S9 (parent)
chain: MSNDGRSRNRDRRYDEVPSDLPYQDTTIRTHPTLHDSERAVSADPLPPPPLPLQPPFGPDFYSSDTEEPAIAPDLKPVRRFVPDSWKNFFRGKKKDPEWDKPVSDIRYISDGVECSPPASPARPNHRSPLNSCKDPYGGSEGTFSSRKEADAVFPRDPYGSLDRHTQTVRTYSEKVEEYNLRYSYMKSWAGLLRILGVVELLLGAGVFACVTAYIHKDSEWYNLFGYSQPYGMGGVGGLGSMYGGYYYTGPKTPFVLVVAGLAWITTIIILVLGMSMYYRTILLDSNWWPLTEFGINVALFILYMAAAIVYVNDTNRGGLCYYPLFNTPVNAVFCRVEGGQIAAMIFLFVTMIVYLISALVCLKLWRHEAARRHREYMEQQEINEPSLSSKRKMCEMATSGDRQRDSEVNFKELRTAKMKPELLSGHIPPGHIPKPIVMPDYVAKYPVIQTDDERERYKAVFQDQFSEYKELSAEVQAVLRKFDELDAVMSRLPHHSESRQEHERISRIHEEFKKKKNDPTFLEKKERCDYLKNKLSHIKQRIQEYDKVMNWDVQGYS

Variants of: B1
Conditions: with plmn_human PLG
With K252A the “effect of a mutation on the interaction” value was “decreasing interaction strength”. With K217A the “effect of a mutation on the interaction” value was “decreasing interaction strength”. In the case of K217A;K252A, the “effect of a mutation on the interaction” value is reported as “disrupting interaction strength”.

From IntAct's records for PubMed 26822058
